We go through three molecules from US20230374150A1 (Memorial Sloan Kettering, published 2023).

For assay [1], the target named is PSMA on PSMA(+) human prostate cancer cell lines (LNCaP-AR, PC3-PIP, CWR22, VCaP) (human, UniProt Q04609 1-750). Kind of assay: cell-based or functional assay.
In assay [2] the target is PSMA on PSMA(+) canine osteosarcoma cell lines (D-17, DSN, DAN, DSDh) (canine, UniProt I4IY07 29-779). Kind of assay: cell-based or functional assay.
Assay [3] deals with T1, Human PSMA antigen (human, UniProt Q04609 44-750, limits assumed).
T1 construct: This is the antigen immobilised on the Biacore chip; also called FOLH1_HUMAN
T1 sequence (Q04609 44-750 limits assumed): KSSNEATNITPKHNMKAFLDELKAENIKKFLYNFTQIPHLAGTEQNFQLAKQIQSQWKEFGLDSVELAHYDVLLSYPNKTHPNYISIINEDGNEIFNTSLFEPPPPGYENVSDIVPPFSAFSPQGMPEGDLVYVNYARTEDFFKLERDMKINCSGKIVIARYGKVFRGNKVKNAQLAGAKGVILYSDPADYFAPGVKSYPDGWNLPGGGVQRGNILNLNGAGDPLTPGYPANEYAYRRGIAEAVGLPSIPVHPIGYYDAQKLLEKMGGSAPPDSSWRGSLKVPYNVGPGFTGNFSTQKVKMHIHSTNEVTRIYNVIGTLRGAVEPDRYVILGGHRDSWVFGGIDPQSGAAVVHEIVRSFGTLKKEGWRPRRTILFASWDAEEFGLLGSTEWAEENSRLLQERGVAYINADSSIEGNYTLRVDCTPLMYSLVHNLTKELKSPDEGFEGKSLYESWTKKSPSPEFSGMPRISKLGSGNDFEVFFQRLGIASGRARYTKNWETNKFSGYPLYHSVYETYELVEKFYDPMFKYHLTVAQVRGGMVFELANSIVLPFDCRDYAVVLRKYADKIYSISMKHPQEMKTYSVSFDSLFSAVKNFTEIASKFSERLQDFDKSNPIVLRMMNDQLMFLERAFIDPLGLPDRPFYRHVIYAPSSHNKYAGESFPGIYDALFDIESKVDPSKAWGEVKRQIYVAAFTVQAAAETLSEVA
Kind of assay: SPR Biacore, immobilised human PSMA, 37 C, 1:1 fit. As to the method: (§1) PSMA-BsAb Biacore Settings. Human PSMA antigen was immobilized directly on Fc2 at 3000 RU, and cynomolgus PSMA (ACRO) on Fc4 at 3000 RU (Blank on Fc1 and Fc3 as controls). Abs were run through the system at 37° C., at concentrations of 250 and 500 nM, with association time 1 min, dissociation time 15 min. Regeneration was performed at 30 mM NaOH. All data were fitted with 1:1 model.
(In SPR one partner is held on a chip, and binding of the other changes the refractive index at the surface.)

For a further assay, the target named is T2, cynomolgus PSMA (ACRO) (cynomolgus, UniProt A0A2K5VNZ0 44-750).
T2 construct: Immobilised on the Biacore chip
Kind of assay: SPR Biacore, immobilised cynomolgus PSMA, 37 C, 1:1 fit. As to the method: as §1

Assay [4] concerns the target T1, Human PSMA antigen. Kind of assay: SPR (Biacore), 37 C, antibody over immobilized PSMA. The source says: The calculated kinetic parameters derived from SPR are shown in FIG. 4C, showing distinct differences in affinities when compared to the chimeric and the original mouse antibody J591. Increased affinity of anti-PSMA antibodies should translate into higher potency, while lower affinity anti-PSMA antibodies into lower toxicity. This affinity modulation is achieved without altering the CDR sequences. Based on the binding kinetics, the clone having combination of J591_VL-1 and J591_VH-3, which has near identical binding kinetics to those of J591 chimeric antibody, was chosen to build the PSMA-BsAb (BC244) of the present technology. The amino acid sequences of the light chain (SEQ ID NO: 11) and the heavy chain (SEQ ID NO: 12) of the select clone are shown in FIG. 12. Mutation N297A was used to remove glycosylation, and K322A to minimize complement activation.

Where “and” joins values, the source holds several entries; their conditions need not be identical. Equal entries are not always repeated.

What is called Kd is the free concentration of one partner at which half of the binding sites on the other are occupied at equilibrium, for simple one-to-one binding. In general, koff refers to a measure of how fast the partners let go of each other. What is called kon is the rate constant with which the complex forms.

Chain of PSMA on PSMA(+) canine osteosarcoma cell lines (D-17, DSN, DAN, DSDh) (I4IY07 entry or part of it limits assumed): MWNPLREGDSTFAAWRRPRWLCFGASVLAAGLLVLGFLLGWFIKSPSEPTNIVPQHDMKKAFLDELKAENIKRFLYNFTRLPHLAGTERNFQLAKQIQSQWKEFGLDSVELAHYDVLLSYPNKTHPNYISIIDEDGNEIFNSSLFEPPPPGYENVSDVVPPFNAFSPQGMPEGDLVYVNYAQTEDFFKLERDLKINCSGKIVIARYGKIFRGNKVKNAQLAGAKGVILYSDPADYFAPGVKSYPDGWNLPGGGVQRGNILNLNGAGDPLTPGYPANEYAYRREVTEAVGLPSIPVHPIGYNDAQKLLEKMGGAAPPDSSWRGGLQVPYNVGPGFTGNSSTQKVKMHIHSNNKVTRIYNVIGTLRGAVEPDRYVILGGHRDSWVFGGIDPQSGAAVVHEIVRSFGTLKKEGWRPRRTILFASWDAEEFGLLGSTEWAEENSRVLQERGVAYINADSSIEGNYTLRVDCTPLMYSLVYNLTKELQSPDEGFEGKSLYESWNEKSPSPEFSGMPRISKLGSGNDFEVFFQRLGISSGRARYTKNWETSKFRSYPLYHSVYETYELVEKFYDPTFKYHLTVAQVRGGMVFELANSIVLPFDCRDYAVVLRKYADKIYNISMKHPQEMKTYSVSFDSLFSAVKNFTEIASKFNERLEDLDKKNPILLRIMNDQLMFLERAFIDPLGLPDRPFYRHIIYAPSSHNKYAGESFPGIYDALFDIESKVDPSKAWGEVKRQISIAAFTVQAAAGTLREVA
Chain of PSMA on PSMA(+) human prostate cancer cell lines (LNCaP-AR, PC3-PIP, CWR22, VCaP) (Q04609 whole entry): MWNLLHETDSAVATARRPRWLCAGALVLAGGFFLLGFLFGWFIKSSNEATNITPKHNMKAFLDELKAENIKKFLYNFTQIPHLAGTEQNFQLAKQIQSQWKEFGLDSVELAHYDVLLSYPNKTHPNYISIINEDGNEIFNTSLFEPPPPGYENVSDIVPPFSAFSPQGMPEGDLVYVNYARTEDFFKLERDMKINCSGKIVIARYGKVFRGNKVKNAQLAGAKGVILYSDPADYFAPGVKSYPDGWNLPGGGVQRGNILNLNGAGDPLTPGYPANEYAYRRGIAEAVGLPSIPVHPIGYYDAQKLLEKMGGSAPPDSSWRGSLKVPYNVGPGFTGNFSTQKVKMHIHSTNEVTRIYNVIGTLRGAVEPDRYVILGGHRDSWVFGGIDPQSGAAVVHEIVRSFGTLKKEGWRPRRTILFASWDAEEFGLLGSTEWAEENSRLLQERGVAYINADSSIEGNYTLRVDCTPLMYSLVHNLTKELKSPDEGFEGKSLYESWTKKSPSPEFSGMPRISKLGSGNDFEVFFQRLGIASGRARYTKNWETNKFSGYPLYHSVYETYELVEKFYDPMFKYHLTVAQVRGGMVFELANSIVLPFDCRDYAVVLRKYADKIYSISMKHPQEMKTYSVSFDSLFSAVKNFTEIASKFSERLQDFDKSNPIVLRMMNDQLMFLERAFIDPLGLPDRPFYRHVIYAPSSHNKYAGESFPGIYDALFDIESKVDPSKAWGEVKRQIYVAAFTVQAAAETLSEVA

B1: humanized anti-PSMAxCD3 BsAb BC244 (H3L1) (bispecific antibody, human IgG1, kappa, N297A)
light: DIQLTQSPSFLSASVGDRVTITCRASQDVGTALDWYQQKPGKAPKLLIYWASTLHSGVPSRFSGSGSGTEFTLTISSLQPEDFATYYCQQYNSYPLTFGQGTKLEIKRTVAAPSVFIFPPSDEQLKSGTASVVCLLNNFYPREAKVQWKVDNALQSGNSQESVTEQDSKDSTYSLSSTLTLSKADYEKHKVYACEVTHQGLSSPVTKSFNRGECTSGGGGSGGGGSGGGGSQVQLVQSGGGVVQPGRSLRLSCKASGYTFTRYTMHWVRQAPGKCLEWIGYINPSRGYTNYNQKFKDRFTISRDNSKNTAFLQMDSLRPEDTGVYFCARYYDDHYSLDYWGQGTPVTVSSGGGGSGGGGSGGGGSGGGGSGGGGSGGGGSDIQMTQSPSSLSASVGDRVTITCSASSSVSYMNWYQQTPGKAPKRWIYDTSKLASGVPSRFSGSGSGTDYTFTISSLQPEDIATYYCQQWSSNPFTFGCGTKLQITR
heavy: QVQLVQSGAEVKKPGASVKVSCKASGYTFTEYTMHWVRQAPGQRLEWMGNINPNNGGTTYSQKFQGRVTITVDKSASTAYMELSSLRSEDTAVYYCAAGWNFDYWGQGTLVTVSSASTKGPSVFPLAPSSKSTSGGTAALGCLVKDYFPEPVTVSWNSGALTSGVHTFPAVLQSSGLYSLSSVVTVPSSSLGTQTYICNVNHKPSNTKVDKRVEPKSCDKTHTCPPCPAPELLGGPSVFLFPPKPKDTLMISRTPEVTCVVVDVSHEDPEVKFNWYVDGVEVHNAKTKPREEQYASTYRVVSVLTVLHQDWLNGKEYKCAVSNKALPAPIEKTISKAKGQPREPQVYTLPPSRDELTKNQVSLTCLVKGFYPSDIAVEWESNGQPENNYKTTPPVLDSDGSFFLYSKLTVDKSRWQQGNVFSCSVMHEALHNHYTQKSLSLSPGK
notes: IgG(L)-scFv format, J591_VL-1 + J591_VH-3; also called PSMA-BsAb
In the case of B1, in assay [1], the “EC50, ADTC (4-hour 51Cr release), LNCaP-AR cells” value is 0.000761 µg/mL and 3.81 pM; the “EC50, ADTC (4-hour 51Cr release), PC3-PIP cells” value was 2.1e-05 µg/mL and 107 fM; the “EC50, ADTC (4-hour 51Cr release), VCaP cells” value is 0.0163 µg/mL and 81.7 pM. Besides, in assay [2], the “EC50, ADTC (4-hour 51Cr release), D-17 cells” value is 0.106 nM; the “EC50, ADTC (4-hour 51Cr release), DAN cells” value amounted to 0.102 nM; the “EC50, ADTC (4-hour 51Cr release), DSDh cells” value came out at 0.152 nM; the “EC50, ADTC (4-hour 51Cr release), DSN cells” value stood at 0.0703 nM. In addition, in the assay with Human PSMA antigen [3], binding was characterised by a dissociation constant (Kd) of 1.18 nM, the koff came to 0.000162 s⁻¹, the kon turned out to be 138000 M⁻¹ s⁻¹ and the “t ½” value stood at 71.2 min. For the same molecule, in the assay with cynomolgus PSMA (ACRO), binding was put at a Kd of 2.79 nM, the koff came to 0.000329 s⁻¹, the kon came out at 118000 M⁻¹ s⁻¹ and the “t ½” value amounted to 35.1 min.

B2: anti-PSMAxhuC825 clone BC193 (PSMA K322) (bispecific antibody)
light: DIQLTQSPSFLSASVGDRVTITCRASQDVGTALDWYQQKPGKAPKLLIYWASTLHSGVPSRFSGSGSGTEFTLTISSLQPEDFATYYCQQYNSYPLTFGQGTKLEIKRTVAAPSVFIFPPSDEQLKSGTASVVCLLNNFYPREAKVQWKVDNALQSGNSQESVTEQDSKDSTYSLSSTLTLSKADYEKHKVYACEVTHQGLSSPVTKSFNRGECTSGGGGSGGGGSGGGGSHVQLVESGGGLVQPGGSLRLSCAASGFSLTDYGVHWVRQAPGKGLEWLGVIWSGGGTAYNTALISRFTISRDNSKNTLYLQMNSLRAEDTAVYYCARRGSYPYNYFDAWGCGTLVTVSSGGGGSGGGGSGGGGSGGGGSGGGGSGGGGSQAVVTQEPSLTVSPGGTVTLTCGSSTGAVTASNYANWVQQKPGQCPRGLIGGHNNRPPGVPARFSGSLLGGKAALTLLGAQPEDEAEYYCALWYSDHWVIGGGTKLTVLG
heavy: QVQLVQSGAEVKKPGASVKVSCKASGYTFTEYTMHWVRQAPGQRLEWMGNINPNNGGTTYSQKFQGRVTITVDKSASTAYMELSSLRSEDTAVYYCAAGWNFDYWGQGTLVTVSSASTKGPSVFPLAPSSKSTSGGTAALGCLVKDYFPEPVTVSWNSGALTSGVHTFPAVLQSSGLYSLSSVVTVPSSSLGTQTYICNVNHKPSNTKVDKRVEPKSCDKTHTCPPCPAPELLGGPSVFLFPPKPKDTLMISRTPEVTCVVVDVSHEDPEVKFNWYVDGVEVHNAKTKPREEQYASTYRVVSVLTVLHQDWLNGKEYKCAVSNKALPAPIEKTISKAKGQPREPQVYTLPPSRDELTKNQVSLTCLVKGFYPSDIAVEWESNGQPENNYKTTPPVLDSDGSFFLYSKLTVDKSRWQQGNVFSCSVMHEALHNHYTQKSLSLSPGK
As to B2, in the assay with Human PSMA antigen [3], binding was put at a Kd of 2.15 nM, the koff came out at 0.00021 s⁻¹, the kon was found to be 97500 M⁻¹ s⁻¹ and the “t ½” value amounted to 55 min. Further, in the assay with cynomolgus PSMA (ACRO), binding was put at a Kd of 4.88 nM, the koff was determined as 0.000209 s⁻¹, the kon stood at 42900 M⁻¹ s⁻¹ and the “t ½” value came out at 55.2 min.

B3: 10J5-chimeric J591 (antibody, V domains shown)
VH: EVQLQQSGPELVKPGTSVRISCKTSGYTFTEYTIHWVKQSHGKSLEWIGNINPNNGGTTYNQKFEDKATLTVDKSSSTAYMELRSLTSEDSAVYYCAAGWNFDYWGQGTTLTVSS
VL: DIVMTQSHKFMSTSVGDRVSIICKASQDVGTAVDWYQQKPGQSPKLLIYWASTRHTGVPDRFTGSGSGTDFTLTITNVQSEDLADYFCQQYNSYPLTFGAGTMLDLKR
notes: also called J591 chimeric antibody
In the case of B3, in the assay with Human PSMA antigen [3], the Kd stood at 1.55 nM, the koff worked out at 0.000196 s⁻¹, the kon worked out at 127000 M⁻¹ s⁻¹ and the “t ½” value came out at 58.8 min. Besides, in the assay with cynomolgus PSMA (ACRO), the Kd was 3.71 nM, the koff amounted to 0.000716 s⁻¹, the kon was determined as 193000 M⁻¹ s⁻¹ and the “t ½” value worked out at 16.1 min. Also, in the assay with Human PSMA antigen [4], the Kd was determined as 0.206 nM, the koff is 1.21e-05 s⁻¹ and the kon was 58500 M⁻¹ s⁻¹.
